Two molecules from PMC7967050 (Advanced Science, 2021) can be followed below.

Assay [1] concerns the target T1, Recombinant human CD38 extracellular domain (amino acids 43–300, hCD38-ECD) (Homo sapiens, UniProt P28907, biotin (EZ-Link NHS-PEG4-biotin) for panning and for capture on the SA biosensor; not said for the cross-linking).
T1 construct: human CD38, extracellular domain, amino acids 43-300; also called purified CD38; extracellular domain of human CD38; source: bought: Sino Biological, Cat. No. 10818-H08H
The assay can be described thus: BLI; Octet Red96, room temperature; biotin conjugated hCD38-ECD captured on SA biosensor; scFv in PBS, 0.02% Tween-20, 0.05% BSA, pH 7.4; association 300 s, dissociation 1200 s; 1:1 Langmuir model; for RP02 (biphasic dissociation) only the initial 0-330 s fitted, apparent KD. The note with it: both partners purified. (Biolayer interferometry detects binding as a change in optical thickness at a sensor tip.)

In assay [2] the target is T2, CD38 on the cell surface (RPMI8226, Daudi, hPBMC) (Homo sapiens, UniProt P28907).
T2 construct: human CD38, endogenous on the surface of RPMI8226, Daudi and PBMC cells; In the functional rows the same protein is also expressed in K562 cells from electroporated CD38 mRNA; also called cell surface CD38; membrane-expressed CD38; source: endogenous, on RPMI8226, Daudi and human PBMC cells
The assay is described as follows: flow cytometry on cells; purified scFv incubated with hPBMC, Daudi or RPMI8226 cells, fluorescence labeled secondary antibody; MFI normalised to that of 028 scFv. To be noted: one partner purified. A general note: In flow cytometry, cells or beads pass a laser one at a time.

In another assay the target is T3, ECD domain of mouse CD38 (Mus musculus, UniProt P56528).
T3 construct: mouse CD38, extracellular domain; also called mCD38-ECD
The assay is described as follows: BLI; purified scFv antibodies against mCD38-ECD on an Octet; set-up for the mouse protein not told. The note with it: both partners purified.

T3 sequence (P56528 45-304): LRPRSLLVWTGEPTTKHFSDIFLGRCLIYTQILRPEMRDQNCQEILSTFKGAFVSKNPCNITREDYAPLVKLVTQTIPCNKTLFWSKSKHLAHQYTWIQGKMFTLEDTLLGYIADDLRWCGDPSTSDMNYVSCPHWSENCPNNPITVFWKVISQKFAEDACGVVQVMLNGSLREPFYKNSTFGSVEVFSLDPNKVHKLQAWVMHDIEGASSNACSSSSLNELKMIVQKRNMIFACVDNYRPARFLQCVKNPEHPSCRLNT

B1: high-affinity anti-CD38 antibody 028 (scFv) (scFv, V domains shown)
VH: QVQLVQSGAEVKKPGSSVKVSCKAFGGTFSSYAISWVRQAPGQGLEWMGRIIRFLGIANYAQKFQGRVTLIADKSTNTAYMELSSLRSEDTAVYYCAGEPGERDPDAVDIWGQGTMVTVSS
VL: DIQMTQSPSSLSASVGDRVTITCRASQGIRSWLAWYQQKPEKAPKSLIYAASSLQSGVPSRFSGSGSGTDFTLTISSLQPEDFATYYCQQYNSYPLTFGGGTKVEIK
notes: In the functional rows the scFv stands in a CAR on T cells; source: purified scFv
Consider B1, for which, in assay [1], the Kd was found to be 0.65 nM.

B2: anti-CD38 scFv antibody RP02 (scFv, V domains shown)
VH: PAQLVESGPGLVKPSGTLSLTCAVSGGSISSSNWWSWVRQPPGKGLEWIGEIYHSGSTNYNPSLKSRVTISVDKSKNQFSLKLSSVTAADTAVYYCAREDYYYYMDVWGKGTTVTVQS
VL: QSVLTQPPSVSAAPGQKVTISCSGSSSNIGNNYVSWYQQLPGTAPKLLIYDNNKRPSGIPDRFSGSKSGTSATLGITGLQTGDEADYYCGTWDSSLSAGVFGGGTKLTVL
notes: selected from a combinatorial scFv phage library; In the functional rows the scFv stands in a CAR on T cells; also called RP02 scFv; source: purified scFv
B2: the results for the binding result (in assay [2]; in the assay with ECD domain of mouse CD38) were “binds” and “no binding”, respectively.
